We go through 1 molecule from publication PMC3493456.

In data set [1] the target is DNA polymerase beta WT (242Pro) (Homo sapiens, UniProt P06746 1-335). Kind of data set: EMSA; EMSA as described previously (ref 34); buffer, salt, pH and temperature not given in the material.
Data set [2] concerns the target DNA polymerase beta P242R (rs3136797) (Homo sapiens, UniProt P06746 1-335, P242R). The data set is described as above.

B1: 1-bp gapped DNA (dsDNA)
DNA 1: GCCTCGCAGCCGTCCAACCAAC
DNA 2: CAACCTCGATCCAATGCCGTCC
DNA 3: GGACGGCATTGGATCGAGGTTGAGTTGGTTGGACGGCTGCGAGGC
modifications: 5' phosphate on downstream oligo (S8)
With B1, the Kd in data set [1] and in data set [2] was 5 nM each time.

What is called Kd is the equilibrium constant for the complex coming apart.
